For assay [1], the target named is human growth hormone receptor on IM-9 cells (human) (UniProt P10912).
The target is the same in assay [2]. The assay can be described thus: cell-based or functional assay.
Assay [3] shares this target. This is another data set of the same source.

Here are results for 20 substances from US20150152159A1.

Where two headings read alike, the source gives them in different places.

UniProt P10912, sequence (P10912 19-638): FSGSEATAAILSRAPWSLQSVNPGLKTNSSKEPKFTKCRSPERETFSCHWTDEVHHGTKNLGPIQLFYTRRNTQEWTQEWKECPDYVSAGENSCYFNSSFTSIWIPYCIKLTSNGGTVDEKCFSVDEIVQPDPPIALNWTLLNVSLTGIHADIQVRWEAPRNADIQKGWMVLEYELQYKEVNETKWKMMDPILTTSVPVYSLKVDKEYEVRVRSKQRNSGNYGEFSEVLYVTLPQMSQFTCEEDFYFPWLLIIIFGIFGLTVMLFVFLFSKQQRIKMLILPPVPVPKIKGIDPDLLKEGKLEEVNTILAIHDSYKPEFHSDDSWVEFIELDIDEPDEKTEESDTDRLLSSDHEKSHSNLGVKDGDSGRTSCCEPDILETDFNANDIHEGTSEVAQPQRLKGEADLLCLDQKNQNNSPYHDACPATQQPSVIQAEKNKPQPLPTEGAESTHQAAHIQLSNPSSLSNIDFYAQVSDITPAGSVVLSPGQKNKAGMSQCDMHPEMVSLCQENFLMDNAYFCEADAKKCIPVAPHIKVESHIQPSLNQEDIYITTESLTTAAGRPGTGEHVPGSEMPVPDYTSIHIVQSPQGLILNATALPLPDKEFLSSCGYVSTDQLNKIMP

In assay [1], “(His)F92pAF-5K (from UniProt P09466) (ligand)” had an EC50, STAT5 phosphorylation in IM-9 cells (MFI of PE, intracellular phospho-STAT5 staining) of 1.5 nM.

The substance “hGH R134pAF (from UniProt P01241 27-217) (ligand)” yielded an EC50 (nM), STAT5 phosphorylation in IM-9 cells in assay [2] of 0.9 nM. Turning to “hGH T135pAF (from UniProt P01241 27-217) (ligand)”, the EC50 (nM), STAT5 phosphorylation in IM-9 cells in assay [2] stood at 0.9 nM. Same read-out and setting: under “hGH E88pAF (from UniProt P01241 27-217) (ligand)” stands 0.9 nM; under “hGH G136pAF (from UniProt P01241 27-217) (ligand)”, 1.4 nM; under “hGH Q91pAF (from UniProt P01241 27-217) (ligand)”, 2 nM. Regarding “hGH S95pAF (from UniProt P01241 27-217) (ligand)”, in assay [2], the EC50 (nM), STAT5 phosphorylation in IM-9 cells came out at 16.7 nM. Still for that read-out and setting: the figure for “rat GH WT (from UniProt P01244 27-216) (ligand)” is more than 200000 nM.

For the substance (His)F92-pAF-30K (ligand), the EC50, STAT5 phosphorylation in IM-9 cells (MFI of PE, intracellular phospho-STAT5 staining) in assay [1] amounted to 4.1 nM. Regarding “hGH G131pAF (from UniProt P01241 27-217) (ligand)”, in assay [2], the EC50 (nM), STAT5 phosphorylation in IM-9 cells came to 0.8 nM. In turn, “hGH Y103pAF (from UniProt P01241 27-217) (ligand)” showed an EC50 (nM), STAT5 phosphorylation in IM-9 cells in assay [2] of 130000 nM.

With “hGH Y111pAF (from UniProt P01241 27-217) (ligand)”, in assay [2], the EC50 (nM), STAT5 phosphorylation in IM-9 cells was determined as 1 nM. “hGH N99pAF (from UniProt P01241 27-217) (ligand)”: the EC50 (nM), STAT5 phosphorylation in IM-9 cells in assay [2] stood at 8.5 nM. Take “hGH F92pAF (from UniProt P01241 27-217) (ligand)”: the EC50, STAT5 phosphorylation in IM-9 cells (MFI of PE, intracellular phospho-STAT5 staining) came to 0.9 nM in assay [1] and 1.1 nM in assay [3]. In addition, in assay [2], the EC50 (nM), STAT5 phosphorylation in IM-9 cells worked out at 0.8 nM. Consider “hGH F139pAF (from UniProt P01241 27-217) (ligand)”, for which the EC50 (nM), STAT5 phosphorylation in IM-9 cells in assay [2] is 3.3 nM. For the substance “(His)F92pAF-20K (from UniProt P09466) (ligand)”, the EC50, STAT5 phosphorylation in IM-9 cells (MFI of PE, intracellular phospho-STAT5 staining) in assay [1] is 4.6 nM. For “hGH A155pAF (from UniProt P01241 27-217) (ligand)”, in assay [2], the EC50 (nM), STAT5 phosphorylation in IM-9 cells worked out at 1.3 nM. In the case of “hGH K140pAF (from UniProt P01241 27-217) (ligand)”, in assay [2], the EC50 (nM), STAT5 phosphorylation in IM-9 cells was 2.7 nM. The same measure, in the same setting: the figure for “hGH P133pAF (from UniProt P01241 27-217) (ligand)” is 1 nM; for “His-tagged hGH Y143pAF (from UniProt P01241 27-217) (ligand)” it is 0.8 nM.
